Results on 5 molecules are retold here after paper PMC9668737, “Herpes simplex virus 1 protein pUL21 alters ceramide metabolism by activating the interorganelle transport protein CERT” (The Journal of Biological Chemistry, 2022).

As usually defined, the stoichiometry N is the number of molecules, sites or subunits per partner or assembly. In general, Kd refers to the equilibrium constant for the complex coming apart.

Values joined by “and” are separate entries in the source; they are usually repeats but may differ in a detail not shown here. Equal entries are not always repeated.

Data set [1] concerns the target CERTL (CERT, long isoform) (UniProt Q9Y5P4). Nature of the data set: SEC-MALS of self-association. The conditions noted are these: reference: wild-type CERTL, hyperphosphorylated (CERTLP); sites S132. On the technique in general: SEC sorts molecules by how far they enter the pores of the column.
The next data set has as its target T1, pUL21-H6 (herpes simplex virus 1 (HSV-1), UniProt F8RG07 1-535).
T1 construct: HSV-1 pUL21, UniProt F8RG07; some paragraphs print H6-pUL21; also called H6-pUL21; WT pUL21; source: E. coli T7 Express lysY/Iq, purified (Ni-NTA, SEC); not shown: His6, C-terminal, kept
T1 sequence: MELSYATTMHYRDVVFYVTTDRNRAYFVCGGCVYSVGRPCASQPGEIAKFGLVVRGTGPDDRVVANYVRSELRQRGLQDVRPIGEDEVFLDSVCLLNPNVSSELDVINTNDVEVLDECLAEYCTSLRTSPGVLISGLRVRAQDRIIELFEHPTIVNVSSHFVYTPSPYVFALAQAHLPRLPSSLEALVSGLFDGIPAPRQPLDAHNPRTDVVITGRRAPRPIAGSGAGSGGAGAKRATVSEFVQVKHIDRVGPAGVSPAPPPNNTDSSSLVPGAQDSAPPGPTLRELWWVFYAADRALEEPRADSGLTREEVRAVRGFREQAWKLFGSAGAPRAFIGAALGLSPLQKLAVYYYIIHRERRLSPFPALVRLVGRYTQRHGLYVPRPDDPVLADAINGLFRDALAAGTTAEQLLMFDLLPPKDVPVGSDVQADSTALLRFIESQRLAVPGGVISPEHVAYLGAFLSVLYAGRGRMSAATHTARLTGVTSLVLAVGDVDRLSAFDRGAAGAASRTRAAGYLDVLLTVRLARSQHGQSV
Nature of the data set: ITC; 25 °C; 20 mM Tris pH 8.5, 500 mM NaCl, 0.5 mM TCEP; CERTL forms in the syringe titrated into pUL21 forms in the cell; one-site binding model. The conditions noted are these: both partners purified. In general terms: In ITC the heat of successive injections is recorded.

Data set [2] deals with the molecule itself. Nature of the data set: SEC-MALS; Superose 6 increase 10/300 GL; 20 mM Tris pH 8.5, 500 mM NaCl, 0.5 mM TCEP; samples injected at 2 mg/ml.
In data set [3] the target is T2, StrepII-CERTL^S132A (constitutively hypophosphorylated human CERTL) (human, UniProt Q9Y5P4-1 1-624, S132A).
T2 construct: ceramide transport protein CERT, longer cytoplasmic isoform CERTL, human, UniProt Q9Y5P4-1, with S132A; source: Freestyle 293F cells, stably transfected, doxycycline-induced, purified (StrepTrap, SEC); not shown: StrepII, N-terminal, kept
T2 sequence (looked up): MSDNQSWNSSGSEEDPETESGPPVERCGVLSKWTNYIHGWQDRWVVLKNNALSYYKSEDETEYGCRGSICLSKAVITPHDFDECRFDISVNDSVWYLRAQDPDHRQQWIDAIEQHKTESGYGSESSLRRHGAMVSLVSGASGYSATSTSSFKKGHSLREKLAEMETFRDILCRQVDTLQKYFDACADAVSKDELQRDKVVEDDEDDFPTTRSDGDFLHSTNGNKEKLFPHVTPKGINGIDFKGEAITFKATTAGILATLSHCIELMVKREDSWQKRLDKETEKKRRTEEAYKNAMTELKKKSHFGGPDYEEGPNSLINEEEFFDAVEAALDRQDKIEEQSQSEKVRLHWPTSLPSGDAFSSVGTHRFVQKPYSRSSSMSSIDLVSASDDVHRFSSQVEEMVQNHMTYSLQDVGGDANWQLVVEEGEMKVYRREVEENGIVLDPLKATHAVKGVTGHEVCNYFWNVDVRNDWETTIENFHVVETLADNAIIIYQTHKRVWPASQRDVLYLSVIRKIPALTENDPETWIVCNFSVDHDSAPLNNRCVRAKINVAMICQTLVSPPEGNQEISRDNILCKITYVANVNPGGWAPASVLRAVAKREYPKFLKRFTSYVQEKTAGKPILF
Nature of the data set: ITC; CERTL forms in the syringe titrated into pUL21 forms in the cell; 25 °C; 20 mM Tris pH 8.5, 500 mM NaCl, 0.5 mM TCEP; one-site binding model; single titrations. The conditions noted are these: both partners purified.

Data set [4] addresses T3, StrepII-CERTL^P (hyperphosphorylated human CERTL) (human, UniProt Q9Y5P4-1 1-624, hyperphosphorylated (CERTL^P); sites not given).
T3 construct: ceramide transport protein CERT, longer cytoplasmic isoform CERTL (with exon 11), human, UniProt Q9Y5P4-1; not shown: StrepII, N-terminal, kept
T3 sequence (looked up): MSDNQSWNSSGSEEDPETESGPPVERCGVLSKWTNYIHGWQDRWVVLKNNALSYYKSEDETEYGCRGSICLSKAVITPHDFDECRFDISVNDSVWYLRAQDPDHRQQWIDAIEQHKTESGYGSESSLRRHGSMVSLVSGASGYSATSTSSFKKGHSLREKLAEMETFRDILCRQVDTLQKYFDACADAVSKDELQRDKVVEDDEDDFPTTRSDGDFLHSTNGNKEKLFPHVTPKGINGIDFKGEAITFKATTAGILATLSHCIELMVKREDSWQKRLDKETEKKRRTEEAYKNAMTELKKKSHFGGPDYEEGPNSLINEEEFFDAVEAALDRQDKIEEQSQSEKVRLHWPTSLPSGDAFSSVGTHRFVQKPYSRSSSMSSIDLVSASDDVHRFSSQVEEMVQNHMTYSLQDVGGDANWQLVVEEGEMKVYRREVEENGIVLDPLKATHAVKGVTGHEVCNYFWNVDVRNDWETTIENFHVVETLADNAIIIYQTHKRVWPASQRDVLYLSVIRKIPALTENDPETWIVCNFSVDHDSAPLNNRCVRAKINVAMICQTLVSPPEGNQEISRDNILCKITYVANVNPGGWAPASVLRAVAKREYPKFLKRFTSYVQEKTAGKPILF
The data set is described as above. The settings on record: both partners purified.

For a further data set, the target named is T4, H6-miniCERTL (human, UniProt Q9Y5P4-1 20-624, residues 20–131 plus 351–624 (MR residues 132 to 350 excluded)).
T4 construct: human CERTL, UniProt Q9Y5P4-1, residues 20-131 plus 351-624 (PH and STARTL domains joined by a retained 23 amino acid stretch of the middle region); Cloned into pOPTH; Monomer by SEC-MALS; source: E. coli T7 Express lysY/Iq, purified (Ni-NTA, SEC); not shown: MAH6, N-terminal, kept
T4 sequence (looked up): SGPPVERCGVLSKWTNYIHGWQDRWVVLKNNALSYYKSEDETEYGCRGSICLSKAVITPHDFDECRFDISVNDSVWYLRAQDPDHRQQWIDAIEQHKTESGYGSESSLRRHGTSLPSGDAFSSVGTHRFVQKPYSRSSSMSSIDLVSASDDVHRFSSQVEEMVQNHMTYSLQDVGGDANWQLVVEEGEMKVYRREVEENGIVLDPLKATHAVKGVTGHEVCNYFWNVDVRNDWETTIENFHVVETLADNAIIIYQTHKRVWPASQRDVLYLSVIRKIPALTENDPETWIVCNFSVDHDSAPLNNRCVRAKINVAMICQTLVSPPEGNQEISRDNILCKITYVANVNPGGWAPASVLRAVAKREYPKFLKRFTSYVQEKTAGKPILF
Nature of the data set: ITC; 25 °C; 20 mM Tris pH 8.5, 500 mM NaCl, 0.5 mM TCEP; CERTL forms in the syringe titrated into pUL21 forms in the cell; one-site binding model. The conditions noted are these: both partners purified.

As to “CERTL (CERT, long isoform) (from UniProt Q9Y5P4) CERTL S132A (hypophosphorylated)”, the “other: observed mass (expected trimer 215.7)” value in data set [1] was “same; reference 184.3”.

B1: StrepII-CERTL^P (hyperphosphorylated StrepII-tagged CERTL) (natural protein, human, UniProt Q9Y5P4-1 1-624, looked up)
chain: MSDNQSWNSSGSEEDPETESGPPVERCGVLSKWTNYIHGWQDRWVVLKNNALSYYKSEDETEYGCRGSICLSKAVITPHDFDECRFDISVNDSVWYLRAQDPDHRQQWIDAIEQHKTESGYGSESSLRRHGSMVSLVSGASGYSATSTSSFKKGHSLREKLAEMETFRDILCRQVDTLQKYFDACADAVSKDELQRDKVVEDDEDDFPTTRSDGDFLHSTNGNKEKLFPHVTPKGINGIDFKGEAITFKATTAGILATLSHCIELMVKREDSWQKRLDKETEKKRRTEEAYKNAMTELKKKSHFGGPDYEEGPNSLINEEEFFDAVEAALDRQDKIEEQSQSEKVRLHWPTSLPSGDAFSSVGTHRFVQKPYSRSSSMSSIDLVSASDDVHRFSSQVEEMVQNHMTYSLQDVGGDANWQLVVEEGEMKVYRREVEENGIVLDPLKATHAVKGVTGHEVCNYFWNVDVRNDWETTIENFHVVETLADNAIIIYQTHKRVWPASQRDVLYLSVIRKIPALTENDPETWIVCNFSVDHDSAPLNNRCVRAKINVAMICQTLVSPPEGNQEISRDNILCKITYVANVNPGGWAPASVLRAVAKREYPKFLKRFTSYVQEKTAGKPILF
modifications: hyperphosphorylated (sites not given)
notes: human CERTL, UniProt Q9Y5P4-1, synthetic gene; Trimer by SEC-MALS (observed 184.3 kDa, expected 215.7 kDa); not shown: StrepII, N-terminal, kept
As to B1, in the data set with pUL21-H6, the dH amounted to 3.89 kcal/mol and the “stoichiometry N” value turned out to be 0.74. Moreover, the “stoichiometry N” value in data set [2] is ~3.

B2: StrepII-CERTL^S132A (natural protein, human, UniProt Q9Y5P4-1 1-624, looked up)
chain: MSDNQSWNSSGSEEDPETESGPPVERCGVLSKWTNYIHGWQDRWVVLKNNALSYYKSEDETEYGCRGSICLSKAVITPHDFDECRFDISVNDSVWYLRAQDPDHRQQWIDAIEQHKTESGYGSESSLRRHGAMVSLVSGASGYSATSTSSFKKGHSLREKLAEMETFRDILCRQVDTLQKYFDACADAVSKDELQRDKVVEDDEDDFPTTRSDGDFLHSTNGNKEKLFPHVTPKGINGIDFKGEAITFKATTAGILATLSHCIELMVKREDSWQKRLDKETEKKRRTEEAYKNAMTELKKKSHFGGPDYEEGPNSLINEEEFFDAVEAALDRQDKIEEQSQSEKVRLHWPTSLPSGDAFSSVGTHRFVQKPYSRSSSMSSIDLVSASDDVHRFSSQVEEMVQNHMTYSLQDVGGDANWQLVVEEGEMKVYRREVEENGIVLDPLKATHAVKGVTGHEVCNYFWNVDVRNDWETTIENFHVVETLADNAIIIYQTHKRVWPASQRDVLYLSVIRKIPALTENDPETWIVCNFSVDHDSAPLNNRCVRAKINVAMICQTLVSPPEGNQEISRDNILCKITYVANVNPGGWAPASVLRAVAKREYPKFLKRFTSYVQEKTAGKPILF
modifications: hypophosphorylated
notes: human CERTL, UniProt Q9Y5P4-1, synthetic gene, S132A; Trimer by SEC-MALS (observed 199.2 kDa); also called constitutively hypophosphorylated form of CERTL; source: Freestyle 293F, stably transfected, doxycycline-induced, purified (StrepTrap HP, Superose 6 SEC); not shown: StrepII, N-terminal, kept
Molecule B2 registered a dH with pUL21-H6 of 2.38 kcal/mol. In addition, the “stoichiometry N” value with pUL21-H6 is 0.97; in data set [2] it was ~3.

B3: pUL21-H6 (HSV-1 pUL21) (natural protein)
chain: MELSYATTMHYRDVVFYVTTDRNRAYFVCGGCVYSVGRPCASQPGEIAKFGLVVRGTGPDDRVVANYVRSELRQRGLQDVRPIGEDEVFLDSVCLLNPNVSSELDVINTNDVEVLDECLAEYCTSLRTSPGVLISGLRVRAQDRIIELFEHPTIVNVSSHFVYTPSPYVFALAQAHLPRLPSSLEALVSGLFDGIPAPRQPLDAHNPRTDVVITGRRAPRPIAGSGAGSGGAGAKRATVSEFVQVKHIDRVGPAGVSPAPPPNNTDSSSLVPGAQDSAPPGPTLRELWWVFYAADRALEEPRADSGLTREEVRAVRGFREQAWKLFGSAGAPRAFIGAALGLSPLQKLAVYYYIIHRERRLSPFPALVRLVGRYTQRHGLYVPRPDDPVLADAINGLFRDALAAGTTAEQLLMFDLLPPKDVPVGSDVQADSTALLRFIESQRLAVPGGVISPEHVAYLGAFLSVLYAGRGRMSAATHTARLTGVTSLVLAVGDVDRLSAFDRGAAGAASRTRAAGYLDVLLTVRLARSQHGQSV
notes: tegument protein pUL21 of herpes simplex virus 1, UniProt F8RG07; source: E. coli T7 Express lysY/Iq, purified (Ni-NTA, SEC); not shown: His6, C-terminal, kept
As to B3, the equilibrium dissociation constant (Kd) in data set [3] was 460 nM and 824 nM; in data set [4], 1080 nM and 554 nM and 684 nM.

B4: H6-pUL21C (domain or fragment)
chain: QDSAPPGPTLRELWWVFYAADRALEEPRADSGLTREEVRAVRGFREQAWKLFGSAGAPRAFIGAALGLSPLQKLAVYYYIIHRERRLSPFPALVRLVGRYTQRHGLYVPRPDDPVLADAINGLFRDALAAGTTAEQLLMFDLLPPKDVPVGSDVQADSTALLRFIESQRLAVPGGVISPEHVAYLGAFLSVLYAGRGRMSAATHTARLTGVTSLVLAVGDVDRLSAFDRGAAGAASRTRAAGYLDVLLTVRLARSQHGQSV
notes: HSV-1 pUL21 C-terminal domain, amino acids 275-535, UniProt F8RG07; Cloned in pOPTH; Monomer by SEC-MALS and SAXS; also called C-terminal domain of pUL21; source: E. coli T7 Express lysY/Iq, purified (Ni-NTA, SEC); not shown: MAH6, N-terminal, kept
With B4, in the data set with H6-miniCERTL, the Kd was 4320 nM.
